Assay results as given in the DeepSol protein solubility set.

Test: soluble on expression in E. coli; label from the status in PepcDB or PDB records

Row | Sequence | soluble on expression in E. coli
1 | MENLKNVAPIEDFNWDAYENGEAVTSASHEDLEKAYDGTLNKVNDREVVDGTVIAMNKREVVVNIGYKSDGIIPLNEFRYNPDLKVGDTVEVYIENQEDKKGQLVLSHRKARATRSWDRVNAALENEEIIKGFIKCRTKGGMIVDVFGIEAFLPGSQIDVKPIRDYDVFVGKTMEFKVVKINQEFKNVVVSHKALIEAELEQQKKEIIGKLEKGQVLEGTVKNITSYGVFIDLGGVDGLIHITDLSWGRVSDPKEVVELDQKLNVVILDFDDEKKRIALGLKQLTPHPWDALDTDLKVGDKVKGKVVVMADYGAFIEIATGVEGLIHVSEMSWSQHLRSAQDFMKVGDEVEAVVLTLDREERKMSLGIKQLKQDPWETIEEKYPVGSKHTAKVRNFTNFGVFVEIEEGVDGLIHISDLSWTKKVKHPSEFTQIGADIEVQVLEIDKENRRLSLGHKQLEENPWDVFETVFTVGSVHEGTIIEMLDKGAVVALPYGVEGFATPKHLVKEDGSQAQLDEKLEFKVIEFNKDAKRIILSHSRIFEDVAKAEERAEKKAASGAKKSSNNKREDAPMIQNQAASTTLGDIDALAALKEQLEGKKLEHHHHHH | soluble
2 | IRQTYEQSCGASSLATLLNILDDQKKFDELELLKIMSGQELYTDMVSFADLNDAVKKLGFQSNSYQINRENLDKLVNIPMLVKIEDDPRFPHFVIIINHKGNYLQVLDPSHGEYISSKSQFFSIWDRYNKGGYALIVAP | not soluble
3 | MTAYLNALGVICALGDSREEVARRLFAGDSSGMVVESGWVPERALPVGAVKGALPAMPPAMRSQHSRNNQLLLAAALQIKDEIGQAIEQYGAGRIGVIIGTSTSGIDEASSSMASWLRDQTFPADYDYRQQELGAPANFLATWLQLSGPAYVISTACTSSARALLSARRALDMGLCDAVLCGGVDSLCKLTLNGFSALEAMSPQLCNPFSLNRNGINIGEAAALFLMTREAGSTHSIALLGAGANCDAHHISAPEPSGRGARDAMLQALSNARLEAAQISYLNLHGTATQLNDAMESLAVQAVFPEGVPCSSTKSLSGHTLGAAGALEIAFCWLSLVPHNTEHALPPQVWDGAADPLLPALHWTVPGARLAAADTRYMMSNSFAFGGNNISLIIGDAP | not soluble
4 | MAHHHHHHMFRSASCILLAAKTIPINPQKPFKLHTAGRDDVPPVPTTATYDTEQMKKCLEMMFRIRRMESLCDQSYKLKKIRGFCHLYIGQEAIPVGMENVLTLEDLIVTAYRDHAWYIVRGGTPGEVFAEMFGKEGGCSKGKGGSMHMYSVKNNFFGGNGIVGAQVPIGAGLGWRFALENRDKPRNVAVTFYGDGAANQGQVFEAMNIAAIHRIPVIFCCENNQFGMGTSKERAAYQPEMYRRGDYIPGLQVDGMDVLAVQEGTRWAKEWCLSGKGPIVLEFDSYRYVGHSMSDPDSQYRKKSDIQDVRKTRDCIHKMKDFMLEEGIMTDEEMKKLEKDVKKEVDQQLQPAEKQKPTPRSELFTDIYVGEQYEHRTTQGTVYAKP | not soluble
5 | MPDSMSEQLRRDMQCEGLLECFHGLKELDKECFRALVEAEEPLTVDELADAVDRERSTAYRAVQRLLQTGFIEKDQINYDQGGYYHVYSPTDPSQIADEMQRMLNDWYAKMGQLIQEFENKYEQSESTAPTVES | soluble
6 | KQGQTALGVEFGSTRIKSVLIDANNFEVLASGSFEWDNQLVNGIWTYSLDDVWKGLQASYTDLKAEVKDKYDFKLSKIGQIGISAMMHGYLVFDQADKQLAEFRTWRNAITEQAAGELSKLFNFNIPQRWCIAHLYQAILNQEKSVSQIDFMTTLAGYVHWRLTGKKVTGIGDASGIFPIDSNSKDYDQKKLDQFSDLDGVEKQPWDIKRILPKVLLAGQNAGQLTKEGSLLIDPSGDLQDGSVFCPPEGDA | not soluble
7 | SNAMTSLEEITKAIMADSQNKVFTEKNIEPLFAAPKTARINIVGQAPGIKAQESRLYWNDKSGDRLREWMGVDYDTFYHSGYFAVIPMDFYYPGKGKSGDLPPRKGFAQKWHQPILDLLPDIQLTILIGNYAQKYYLHQKSSVKLTDTVAHYKKYLPDYFPLVHPSPRNQIWMSRHPWFEAQVVPDLKKIIQQIIQSS | soluble
8 | PYAKGNFKAYEQELIGRFKHGESIHSDSIRFPDSLRYKTLVTGRTVYGGGGIMPDLFIPTDTALFNKLHRELLNKGIFNRAVLKYVDAHRQKLRQRFPDRQSYATFSIPEELTESLKAFAEAEKITWSTELFAQAEELIKCQLHAYIARDILGENDFFYFFNRMDKEYIKALDLLNDPDEYKRLLGK | not soluble
9 | MGSDKIHHHHHHMAPRIKTRDRIAQASLELFNAQGERSVTTNHIATHLGISPGNLYYHYPNKQAIIAELFAEYESHVESFLRLPEGRGLTVDDKTFYLEALLAAMWRYRFLHRDLEHLLESDPELAARYRAFAQRCLVNAKAIYRGFTEAGILRMNETQLEALTLNAWIILTSWVRFLCTTLDLDGDLSEAQLRRGIYQVLALESGHIEAQAQDAVDGISERLYVPL | not soluble
10 | MAHHHHHHMSDSALLEGVSFPVEPFAEKHRKILALLAHAATQAVNTRSNEVVFDVLCSSEPSLARLYPEVAVLQGVHQIRRVLRNLQDSQPHVRPMYLKMIVDSLKDMNEMLPDPLLLVIARTVEILEGEGRGFRELEPHLLDLVEYIQVVILRETKLLQCRGTLITLRLRGVPPFVASETESTT | not soluble
11 | KNSFNIKLKEDSEMLEEVVVTGYGGKQLRTKVTNSIAKVKDEALKVGLFSNPAQALSGAVAGLKVTQASGSPGAAPKVTLRGGTNFDGSGDPLVIVDGQLRDGMQDINPEDIESMEVLKDAGATAIYGARASNGVILITTKTGKEGR | not soluble
12 | MSRLPLLLLSVLLATPAAQASDCPDLALVLALDSSLSIDRAEFALQAEGYAEAFRSPAVQAALAAAGTVDVAAVVWSDGAAPPARLGWQRIAAPEDARRLAVRLAALERVAPGRTGVGGGLAAALEMLAGHGCAGRRLVNLSGDGRETLAPRMGLRGQLMRARAEAEALGATVNALAVTDEEADLPDWFRSHVIVGPGAFVMETREFRGFAEAVARKLVREIAPPALAAGRPGLPPHRLTPGGRDHPARRSLEHHHHHH | not soluble
13 | MSLRLPPPDARPIRVVCISDTHTLELADMPDGDLLIHAGDLCNDGSAKEIQAAVDWLRKLPHPQKVVICGNHDSYFDIRSRRFEDRDQSLATVSSSTASLRSVDDFDFPHCIDWGDIHYLQHSSVTVTFPPLPQTPSSSSALLASRPRSLTIYGAPQIPAIVPFGPEHAFAYPAHHDAWSGTIPPNTDIMVTHTPPQSHLDLSPVFSTGCPFLLSEAWRIRPALHVFGHVHAAYGREPVYWDEAQKAWERICSSRREGHHHHHH | not soluble
14 | MSLITHISPLGSMDMLSQLEVDMLKRTASSDLYQLFRNCSLAVLNSGSLTDNSKELLSRFENFDINVLRRERGVKLELINPPEEAFVDGRIIRALQANLFAVLRDILFVYGQIHNTVRFPNLNLDNSVHITNLVFSILRNARALHVGEAPNMVVCWGGHSINENEYLYARRVGNQLGLRELNICTGCGPGAMEAPMKGAAVGHAQQRYKDSRFIGMTEPSIIAAEPPNPLVNELIIMPDIEKRLEAFVRIAHGIIIFPGGVGTAEELLYLLGILMNPANKDQVLPLILTGPKESADYFRVLDEFVVHTLGENARRHYRIIIDDAAEVARQMKKSMPLVKENRRDTGDAYSFNWSMRIAPDLQMPFEPSHENMANLKLYPDQPVEVLAADLRRAFSGIVAGNVKEVGIRAIEEFGPYKINGDKEIMRRMDDLLQGFVAQHRMKLPGSAYIPCYEICTEGHHHHHH | soluble
15 | LLGDEAIALGAIHAGISGVYAYPGTPSTEITEFIQNNRLAKERKLHSTWCTNEKTAMEAALGMSYAGKRALVCMKHVGMNVAADAFVNSAITGVNGGLVVLAADDPSMHSSQNEQDSRFYGKFAMIPMLEPSSQQEAYDMMDYAYTLSEKLKLPVLMRVVTRLAHSRAGVEVADIREENQLNPDHERAHWVLLPGNARKQYLDLVKKQEKLEEASSKSPYNYLEGLNPEYDYEFGVIACGIGYNYVKEADTDSCHIPVLKVSQYPLPAEEIRTMADRCGYVLVVEDGQPFVEEQVKAILSSDYEVKGRLTETLPRTGELTPDNVGEAIGWGIKRPFGKSQVVMPRPPALCQGCGHRDVYDALNKVAAEYPDARIFGDIGCYTLGALPPFRAIDSCVDMGASITMAKGASDAGVFPAIAVIGDSTFTHSGMTGLLDAVNDRANITVVISDNLTTAMTGGQDSAGTNKFEAICLGLGVEPEHVRVVVPLPKNMEEITRTIREEIEY | not soluble
16 | FWMELQAVDSYQVKASGILTGADRKIITMLYQPLMGAECLALYQTLFTEVEENRLWSEAHSHVQLLNMLDISLKALFEARLKLEGLGLLKSYVKTENDQRFYIYEILPPLSPEKFFSDGLLNIYLYSKIGNAQFQRLRRFFADETFETDTYSEITRSFQDVFEPFKGGSSAVPSESSQVLVDKIVPKEIEFDDASFDFNLFLSLLSPGMIAREKITKEVRQTILKLHGIYQVSEKDMPSYLYRALDANGEIDIVYLRKIVREGYTIENGAPPKLQMKQETPGKKEPEEALNDEEALQVYLESITPFQLLVDISDGAIPAETDLRVVEEVMNQQNLPVPVMNVLIEYVLLRLDRKLSKNYMMTIAAHWKRKNVKTAKEAMDLAWQEHEKYKRLQEEPATPKNNNYNRNYQKSTRKEILPDWFDKEQVAPAENKMTDKEKQTLEEQVREIKERLNKR | not soluble
17 | MAQYKGAASEAGRAMHLMKKREKQREQMEQMKQRIAEENIMKSNIDKKFSAHYDAVEAELKSSTVGLVTLNDMKAKQEALVKEREKQLAKKEQSKELQMKLEKLREKERKKEAKRKISSLSFTLEEEEEGGEEEEEAAMYEEEMEREEITTKKRKLGKNPDVDTSFLPDRDREEEENRLREELRQEWEAKQEKIKSEEIEITFSYWDGSGHRRTVKMRKGNTMQQFLQKALEILRKDFSELRSAGVEQLMYIKEDLIIPHHHSFYDFIVTKARGKSGPLFNFDVHDDVRLLSDATVEKDESHAGKVVLRSWYEKNKHIFPASRWEPYDPEKKWDKYTIR | soluble
18 | MGSDKIHHHHHHMQETKTTVRASTLSNGRSLAAYHEDFDRKWASAWGRTLTYAQMHANRVVQSARIVLSHPDIWGKVASGFVNAARGRKRLLRSLEIAVTYRCNARCEQCSCRRDHDPVREKTELLTLPELQRVIDEAVDMGAFQFCINGGEPMLEEEKVFALLDYIKTRHKGYVHLCTNGTLLDDDKVARLAEHHLDSVEMGFDSAFEDVHDANRVRGGYRKVFHNIEAFRKRGVGVVLNTILTNQKVRSDDMLFTMDLAKKHGCMLQVTPCCLTGALRGRMDMMLTEKARFYFYWFLAQSTNNRSDLYSSLTRIKCPAGREKLGLQPYGDVVSCPLIQIRYGNVREKGLAAIQQDILADPYYGLDGSHGCLPAMSETFIRERLSGDR | not soluble
19 | LGIDLLSYYIEAGSCMIYYNEKPYIDEFQQYVSDNDISTTDVEQYDEWMSEHDVAFYSVQEMGKVIYNKSNVDKLISPAKNMYDYRFTGSYELPVQFSDIEAEVFIYTGFTEKYY | not soluble
20 | MSRPPLPPFTRETATQKVRMAEDAWNSRDPARVSLAYTPDSRWRNRAEFLQGRDAIVEFLTRKWAKEHDYRLIKDLWAFDGRFIAVRFQYEWRDEAGLWYRSYGNEQWEFDDDGLMRRREASINDVAISEGDRRFHWPAPGPRPDDVPGLAADPFLEHHHHHH | soluble
21 | MGSDKIHHHHHHMKKLRIAQVSPLIESVPPKKYGGTERVVYYLTEGLVERGHEVTLFASGDSATSARLIAPVKESLRLGRKIHSTTIMHMLMLSKVYEEMAGEFDIIHSHLEYLTLPYASCSRTPTVLTMHGRLDLPDYADILKRYSSMAWVSISDSQRAPVPDINWVGTIYHGYPENLFEFNPDPEDYFLYLGRFSEEKRPDEAIRLARACKIHLKLAAKIDTADKAYFKAKVEPLLDSPYIEYVGEVGDSRKGELLRNAKALLNTIDWPEPFGLVMIEALACGTPVIVRRCGSSPEVITHGVTGFICDSQLDFIRAIHNIGTISRIACRREFEQRFTLRHMVDNYETLYRKVIAASSATDSLSSLP | not soluble
